From paper PMC12469859 (Structure (London, England : 1993), 2025)

T1: Neisseria gonorrhoeae BamE (NgBamE) with a C-terminal 10x histidine tag (N. gonorrhoeae FA1090, UniProt Q5F5Y8 18-125)
T1 sequence (looked up): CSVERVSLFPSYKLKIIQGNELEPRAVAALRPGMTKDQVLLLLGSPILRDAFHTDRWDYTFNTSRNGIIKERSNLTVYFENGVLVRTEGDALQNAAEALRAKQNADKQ

B1: Neisseria gonorrhoeae BamC (NgBamC), with the HG2 domain (natural protein, N. gonorrhoeae FA1090, UniProt A0ACH0F7W2 42-398, looked up)
chain: CSGSKTEQPKLDYQSRSHRLIKLEVPPDLNNPDQGNLYRLPAGSGAVRASDLEKRRTPAVQQPADAEVLKSVKGVRLERDGSQRWLVVDGKSPAEIWPLLKAFWQENGFDIESEEPAIGQMETEWAENRAKIPQDSLRRLFDTVGLGGIYSTGERDKFIVRIEQGKNGVSDIFFAHKAMKEVYGDKNKDTTMWQPSASDPNLEAAFLTRFMQYLGVDGRQAENALAKKPTLPAANEMARIEGKSLIVFGDYGRNWRRTGLALDRIGLTVVGQNTERHAFLVQKAPNESNAVTEQKPGLFKRLLGKGKAEKPAEQPELIVYAEPVADGSRIVLLNKDGSAYAGKDASALLGKLHSELR
B2: Neisseria gonorrhoeae BamD (NgBamD) (natural protein, N. gonorrhoeae FA1090, UniProt Q50985 17-267, looked up)
chain: CATQGTADKDAQITQDWSVEKLYAEAQDELNSSNYTRAVKLYEILESRFPTSRHARQSQLDTAYAYYKDDEKDKALAAIERFRRLHPQHPNMDYALYLRGLVLFNEDQSFLNKLASQDWSDRDPKANREAYQAFAELVQRFPNSKYAADATARMVKLVDALGGNEMSVARYYMKRGAYIAAANRAKKIIGSYQNTRYVEESLAILELAYKKLDKPQLAADTRRVLETNFPKSPFLTHAWQPDDMPWWRYWH
B3: Neisseria gonorrhoeae BamA (NgBamA) (natural protein)
chain: FTIQDIRVEGLQRTEPSTVFNYLPVKVGDTYNDTHGSAIIKSLYATGFFDDVRVETADGQLLLTVIERPTIGSLNITGAKMLQNDAIKKNLESFGLAQSQYFNQATLNQAVAGLKEEYLGRGKLNIQITPKVTKLARNRVDIDITIDEGKSAKITDIEFEGNQVYSDRKLMRQMSLTEGGIWTWLTRSDRFDRQKFAQDMEKVTDFYQNNGYFDFRILDTDIQTNEDKTRQTIKITVHEGGRFRWGKVSIEGDTNEVPKAELEKLLTMKPGKWYERQQMTAVLGEIQNRMGSAGYAYSEISVQPLPNAGTKTVDFVLHIEPGRKIYVNEIHITGNNKTRDEVVRRELRQMESAPYDTSKLQRSKERVELLGYFDNVQFDAVPLAGTPDKVDLNMSLTERSTGSLDLSAGWVQDTGLVMSAGVSQDNLFGTGKSAALRASRSKTTLNGSLSFTDPYFTADGVSLGYDIYGKAFDPRKASTSVKQYKTTTAGGGVRMGIPVTEYDRVNFGLAAEHLTVNTYNKAPKRYADFIRKYGKTDGADGSFKGLLYKGTVGWGRNKTDSASWPTRGYLTGVNAEIALPGSKLQYYSATHNQTWFFPLSKTFTLMLGGEVGIAGGYGRTKEIPFFENFYGGGLGSVRGYESGTLGPKVYDEYGEKISYGGNKKANVSAELLFPMPGAKDARTVRLSLFADAGSVWDGRTYTAAENGNNKSVYSENAHKSTFTNELRYSAGGAVTWLSPLGPMKFSYAYPLKKKPEDEIQRFQFQLGTTF

Target: T1, Neisseria gonorrhoeae BamE (NgBamE) …
Assay: co-purification

| Binder | stoichiometry N |
| --- | --- |
| B1 | 1 |
| B2 | 1 |
| B3 | 1 |
